B1: TPPP (parent)
chain: LCKDCQVIDGRNVTVTDVDIVFSK
B2: CSNK1G1 (parent)
chain: GSLPWQGLKADTLKERYQKIGDTK

Variants of: B1
Assay: protein stability index of a GFP-peptide fusion (GPS, HEK-293T) (PSI 1-6); higher = more stable
Details: c terminus: a fixed tail appended
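Note: lentivirally expressed fusions sorted by FACS into six bins by GFP to DsRed ratio, PSI derived from sequencing read proportions per bin multiplied by bin number.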

Protein stability index of substitutions, site by site:
C2: G 3.37 | W 2.56 | Q 4.18 | T 3.61 | K 3.07 | Y 2.75 | H 3.42 | I 2.93 | P 4.04 | M 3.24 | S 3.54 | D 4.08 | F 2.48 | N 3.59 | V 3.04 | L 3.09 | R 2.79 | A 3.56 | E 4.36
V7: T 2.87 | Q 2.46 | R 2.8 | W 3.61 | S 3.05 | E 2.94 | F 2.33 | K 2.46 | I 2.33 | C 2.4 | M 2.31 | Y 1.53 | N 2.61 | P 2.96 | L 2.2 | A 2.61 | G 2.59 | D 3.64 | H 2.44
Q6: R 2.8 | V 2.14 | M 2.66 | T 2.7 | E 2.9 | G 2.78 | F 1.74 | N 2.49 | S 2.61 | Y 2.4 | A 2.05 | W 2.17 | P 3.16 | C 2.09 | H 2.73 | D 2.69 | L 1.97 | K 2.16
D4: Q 1.97 | M 2.1 | L 1.83 | F 1.93 | P 2.25 | I 2.02 | H 1.57 | Y 1.81 | N 1.69 | S 1.71 | G 2.42 | T 1.77 | C 2.35 | V 1.82 | R 2.73 | E 2.71 | K 2.31 | A 1.76
K3: A 2.51 | C 1.89 | H 2.52 | W 1.49 | Y 1.91 | P 3.26 | I 1.05 | F 1.65 | T 2.83 | N 2.95 | S 2.17 | L 1.92 | R 2.15 | Q 2.18 | M 1.78 | G 3.34 | E 3.21 | D 3.3
C5: N 3.66 | G 2.98 | I 2.6 | F 2.54 | T 3.35 | M 2.77 | R 3.38 | K 3.84 | L 3.16 | A 3.62 | S 4.01 | E 4.32 | Y 2.94 | H 3.82 | W 2.28 | V 3.36 | D 4.39 | Q 3.75 | P 4.03
L1: C 1.85 | F 2.25 | I 2.01 | S 2.91 | Y 2.08 | E 3.41 | T 2.73 | N 3.32 | A 2.54 | V 2.71 | R 1.57 | Q 3.08 | D 4.05 | W 1.89 | M 2.26 | K 3.47 | H 2.7 | P 2.85

Variants of: B2
Assay: as above
Details: c terminus: a fixed tail appended

Protein stability index: each site, then its substitutions
T23: P 3.91 | G 4.34 | W 2.78 | Q 3.96 | F 3.38 | V 4.01 | H 4.08 | C 3.4 | Y 3.36 | D 4.55 | I 3.81 | N 3.92 | M 3.97 | A 4.46 | R 3.84 | K 4.74 | S 4.53 | L 3.82 | E 4.68
K24: R 3.72 | G 3.79 | N 3.91 | S 3.79 | C 3.4 | D 3.25 | L 3.3 | M 3.19 | Q 4.07 | A 4.01 | F 3 | Y 2.63 | E 4.88 | V 3.39 | W 2.95 | T 4.08 | I 3.53 | H 3.6 | P 4.2
